Results from patent publication US7056694B1, “DNA encoding peripheral-type benzodiazipine receptor associated protein 7 and applications or methods of use” (Georgetown University, priority 1998, dated 2006).

Legend:
[1] = biological target: T1, GAL4 (1-147)-PBR fusion (plasmid pGBT9+PBR), mouse peripheral-type benzodiazepine receptor as two-hybrid bait (mouse, UniProt P04386 1-147; P50637 1-169); assay: yeast two-hybrid, His3 reporter (histidine prototrophy), second-round transformation of HF7c carrying pGBT9-PBR
T1 construct: Bait of the yeast two-hybrid screen, expressed in yeast HF7c; also called pGBT-PBR; fusion PBR protein
Text: The Clontech […] two-hybrid system was applied in this study (detailed in manufacturer's instruction book). Briefly, the yeast reporter host strain HF7c was simultaneously cotransformed with both pGBT-PBR and the mouse testis cDNA library in pGAD10 plasmid by using lithium acetate high-efficiency method (Gietz, D. et al., 1992, *Nucleic Acids Res.* 20, 1425). HIS positive clones were further selected by colony lift filter assay for β-galactosidase activity. Plasmid DNA was rescued in *Escherichia coli* DH5? from yeast cells. Plasmids were retransformed into yeast HF7c cells with plasmid pGBT-PBR to test for histidine prototrophy and β-galactosidase activity (Clontech manual). The cDNA inserts from the positive clones were sequenced. The full length PAP7 cDNA was obtained by using 5' and 3' RACE kit from kit (CLONTECH, Palo Alto, Calif.).
Library plasmids from these transformants were rescued in *E. coli* strain DH5α. Both the His+ phenotype and the expression of β-galactosidase were confirmed by a second-round transformation of strain HF7c carrying pGBT9-PBR (Table 1).

[2] = biological target: PBR (Mus musculus, UniProt P50637); assay: PK 11195 radioligand binding to PBR interacting with PAP20; conditions: PK11195 as a ligand
Method: ^3H-1-(2-chlorophenyl)-N-methyl-N-(1-methyl-propyl)-3-isoquinolinecarboxamide (PK 11195) (NEN, Boston, Mass.) binding studies were performed as we previously described (Papadopoulos, V. et al., 1990, supra; Garnier, M. et al., 1994, Molecular Pharmacology 45, 201–211). The dissociation constant (Kd) and the number of binding sites (Bmax) were determined by Scatchard plot analysis of the data using the LIGAND program (Munson, P. J. and Rodbard, D., 1980, Anal. Biochem. 107, 220–239).

[3] = test system: MA-10 cells; assay: Steroid biosynthesis: hCG-stimulated progesterone production in transfected MA-10 cells; type: cell-based, mouse; conditions: pSVzeoPAP7 vs pSVzeo empty vector transfectants, hCG 50 ng/ml, dose and time dependent
Method: MA-10 cells were grown in modified Waymouth's MB752/1 medium containing 15% horse serum, as described previously (Papadopoulos, V. et al., 1990, J. Biol. Chem. 265, 3772–3779). Mouse C6 glioma and mouse Y1 adrenal cortical cells were cultured in DMEM and DMEM F12 repectively, with 10% fetal bovine serum. MA10 cells were transiently transfected by electroporation (El Hefnawy, T. et al., 1996, Mol. Cell Endocrinol. 119, 207–217). Each Genepulser cuvette (0.4 cm-gap, BioRad, Hercules, Calif.) contained 8×10^6 cells in 350 μl antibiotic-free complete Waymouth's growth medium (see above), plus 30 μg plasmids DNA in 50 μl of 0.1×TE. Cells in electroporation cuvettes were electro-shocked at 330 V and at a capacitance of 950 μFd generated from Genepulser (BioRad, Hercules, Calif.). The cells were kept immediately on ice for 10 min before plated into 96 well plates.
MA-10 cells were plated into 96-well plate at the density of 2.5×10^4/well for overnight. The cells were stimulated with 50 ng/ml hCG in 0.2 ml/well serum-free medium for 2 hours. The culture medium was collected and tested for progesterone production by RIA. The assay was carried out by using anti-progesterone antisera (ICN, Costa Mesa, Calif.), following the conditions recommended by the manufacturer. […] Radioimmunoassay data was analyzed using the software provided by Wallac (EG&G Wallac, Gaithersburg, Md.). […]

Sequence of PBR (P50637 whole entry): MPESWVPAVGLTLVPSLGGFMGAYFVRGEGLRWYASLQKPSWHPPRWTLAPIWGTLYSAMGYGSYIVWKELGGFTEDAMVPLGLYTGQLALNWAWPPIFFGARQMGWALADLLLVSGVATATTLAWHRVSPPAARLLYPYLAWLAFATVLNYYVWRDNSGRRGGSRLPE

B1: PAP20 (PBR associated protein 20), two-hybrid clone in pGAD10 (other)
chain: ANFNQSGNIADSSLSFTFTNSSNGPNLITTQTNSQALSQPIASSNVHDNFMNNEITASKIDDGNNSKPLSPGWTDQTAYNAFGITTGMFNTTTMDDVYNYLFDDEDTPPNPKKENSRPRRPQKRKRGAEVLAAQIVQKTRLERKKQEASVSKDAPVPTNTKRAKKQEKSPGRIASQSKPPMKKSPQKRKVNVARGRRNTRKQLQPAEKEIALHLQSEISSDGQKDGLNLSTSQQESISMIPKGPPENSVISCDSQALNMLADLALSSAAASIPSCKPRNLPCVSDLPRNNVLLTKENPLLGASDHEYHKG
notes: range 768-881
binding result [1]: binds

B2: PAP20: PBR associated protein, polypeptide of 196 amino acids, SEQ ID NO:10; predominantly expressed in testis (protein, listed as Mus musculus)
chain: NSRPRRPQKRKRGAEVLAAQIVQKTRLERKKQEASVSKDAPVPTNTKRAKKQEKSPGRIASQSKPPMKKSPQKRKVNVARGRRNTRKQLQPAEKEIALHLQSEISSDGQKDGLNLSTSQQESISMIPKGPPENSVISCDSQALNMLADLALSSAAASIPSCKPRNLPCVSDLPRNNVLLTKENPLLGASDHEYHKG
affinity of ligand binding to PBR [2]: increased the affinity of ligand binding

B3: PAP7: PBR associated protein 7, SEQ ID NO:7; in transfection a partial sequence including the PBR binding domain in pSVzeo (protein, listed as Mus musculus)
chain: RPRRPKVELFTVVTRVKVVLFLNQLSLCKLVKDGKAFHPTYEEKLKFVALHKQVLLGPYNPDTSPEVGFFDVLGNDRRREWAALGNMSKEDAMVEFVKLLNKCCPLLSAYVASHRIEKEEEEKRRKAEEERRQREEEERERLQKEEEKRKREEEDRLRREEEERRRIEEERLRLEQQKQQIMAALNSQTAVQFQQYAAQQYPGNYEQQQILIRQLQEQHYQQYKHQAEQTQPAQQQAALQKQQEVVMAGASLPASSKVNTAGASDTLSVNGQAKTHTENSEKVLEPEAAEEALENGPKDSLPVIAAPSMWTRPQIKDFKEKIRQDADSVITVRRGEVVTVRVPTHEEGSYLFWEFATDSYDIGFGVYFEWTDSPNAAVSVHVSESSDEEEEEEENVTCEEKAKKNANKPLLDEIVPVYRRDCHEEVYAGSHQYPGRGVYLLKFDNSYSLWRSKSVYYRVYYTR
progesterone production in response to hormonal (hCG) stimulation [3]: significantly reduced
progesterone production in response to hormonal (hCG) stimulation ([3]; listed as PAP7 fragment): significantly inhibited
